Test results taken from the DeepSol protein solubility set.

Assay: soluble on expression in E. coli; label from the status in PepcDB or PDB records
In the case of “MGSSHHHHHHSSGLVPRGSHMEEEMMILGVDGGSTKTLAIVFDERSERIMGVGISGPSNFTNAPRETAESNISDAVRKACSEAGTDLDGIGIRVFGLAGIGDSREATELGKDIVRSIVGHADVYSDGLGAYKFANLNDDGVVFAPGTGSVGFIKNGSDPERFGGWGWFIGDEASASWMAKQAILFAEREHDGIAETGFLDVVRRYFGMDLYETVYAISKEKIAKRVVAALAPQVSAMARSGNRYAISIFEESSSYIADLLNAKSRIFGRSGKYSVLGGTMLAGDFYRDMIRKKSSVDVSIYYGYQVAIGDVLIGIEKKGSISVDLRNKMIDQLNSILENKKEDIKKFLFLDSVPTS”, the “soluble on expression in E. coli” value is reported as “soluble”. In the case of “MGSSHHHHHHSSGLVPRGSHMLLREVTREERKNFYTNEWKVKDIPDFIVKTLELREFGFDHSGEGPSDRKNQYTDIRDLEDYIRATAPYAVYSSVALYEKPQEMEGWLGTELVFDIDAKDLPLRRCEHEPGTVCPICLNDAKEIVRDTVIILREELGFNDIHIIYSGRGYHIRVLDEWALKLDSKSRERILSFVSASEIEDVEEFRKLLLNKRGWFVLNHGYPRAFRLRFGYFILRIKLPHLINAGIRKSIAKSILKSKEEIYEEFVRKAILAAFPQGVGIESLAKLFALSTRFSKSYFDGRVTVDLKRILRLPSTLHSKVGLIAKYVGTNERDVMRFNPFKHAVPKFRKEEVKVEYKKFLESLGT”, the “soluble on expression in E. coli” value is reported as “soluble”. For “MGSSHHHHHHSSGLVPRGSHMSLDMKEHPDAEVQKNQVLTLEDWKEKWVTRHISFHQEQGHQLLKKHLDTFLKGQSGLRVFFPLCGKAIEMKWFADRGHTVVGVEISEIGIREFFAEQNLSYTEEPLAEIAGAKVFKSSSGSISLYCCSIFDLPRANIGKFDRIWDRGALVAINPGDHDRYADIILSLLRKEFQYLVAVLSYDPTKHAGPPFYVPSAELKRLFGTKCSMQCLEEVDALEERHKAWGLDYLFEKLYLLTEK”, the “soluble on expression in E. coli” value was “soluble”. In the case of “MGSSHHHHHHSSGLVPRGSKITVNPESKAVLAGQFVKLCCRATGHPFVQYQWFKMNKEIPNGNTSELIFNAVHVKDAGFYVCRVNNNFTFEFSQWSQLDVCDIPESFQRSVDGVSESKLQICVEPTSQKLMPGSTLVLQCVAVGSPIPHYQWFKNELPLTHETKKLYMVPYVDLEHQGTYWCHVYNDRDSQDSKKVEIIIDELNNLGHPDNKEQTTDQ”, the “soluble on expression in E. coli” value is reported as “soluble”. In the case of “MGSSHHHHHHSSGLVPRGSSRRKSNCVKEVEKLQEKREKRRLQQQELREKRAQDVDATNPNYEIMCMIRDFRGSLDYRPLTTADPIDEHRICVCVRKRPLNKKETQMKDLDVITIPSKDVVMVHEPKQKVDLTRYLENQTFRFDYAFDDSAPNEMVYRFTARPLVETIFERGMATCFAYGQTGSGKTHTMGGDFSGKNQDCSKGIYALAARDVFLMLKKPNYKKLELQVYATFFEIYSGKVFDLLNRKTKLRVLEDGKQQVQVVGLQEREVKCVEDVLKLIDIGNSCRTSGQTSANAHSSRSHAVFQIILRRKGKLHGKFSLIDLAGNERGADTSSADRQTRLEGAEINKSLLALKECIRALGRNKPHTPFRASKLTQVLRDSFIGENSRTCMIATISPGMASCENTLNTLRYANRVKEL”, the “soluble on expression in E. coli” value is reported as “soluble”. With “MGSSHHHHHHSSGLVPRGSVGGCLAKDGLQQSKCPDTTPKRRRASSLSRDAERRAYQWCREYLGGAWRRVQPEELRVYPVSGGLSNLLFRCSLPDHLPSVGEEPREVLLRLYGAILQGVDSLVLESVMFAILAERSLGPQLYGVFPEGRLEQYIPSRPLKTQELREPVLSAAIATKMAQFHGMEMPFTKEPHWLFGTMERYLKQIQDLPPTGLPEMNLLEMYSLKDEMGNLRKLLESTPSPVVFCHNDIQEGNILLLSEPENADSLMLVDFEYSSYNYRGFDIGNHFCEWVYDYTHEEWPFYKARPTDYPTQEQQLHFIRHYLAEAKKGETLSQEEQRKLEEDLLVEVSRYALASHFFWGLWSILQASMSTIEFGYLDYAQSRFQFYFQQKGQLTSVHSSS” the “soluble on expression in E. coli” value was “soluble”. For “MGSSHHHHHHSSGRENLYFQGHMHANIRYSFGGDEHLFAEVAEAMSLEAFFRGMAITRAIEALQLPGVLDVCLANASFQVRFDPDRLAPQALLETVRGLEAEAVAARSIETRIVEVPVLYNDPWTHETLMRFRDRHQDPDSTDLEYAARINGYADVQAFIQAHSGTPWFVSMVGFVAGLPFMYQMVERERQLQVPKYLRPRIDTPKLTLGHGGCFGCIYSVRGAGGYQMFGVTPAPIFDPRQGLPYLEESMVFFRAGDIVQFRPIERTEYEHMAAEVESGTFDLRIRPVSFDLDAFLADPRGCTQHLQEVLHVD”, the “soluble on expression in E. coli” value was “soluble”. For “MGSSHHHHHHSSGRENLYFQGHMKNLLDLSYEELVTEITNLGLERYRADQILDWVFDKKVNNFDEMTNLSKKHRALLKEHFSISFLKLLDKKVSRIDGTTKFLWELEDGNTIESVMLFHPDRITACISTQVGCPVKCIFCATGMSGFVRNLTTGEIVAQILSMEKEEKKKIGNVVYMGMGEPLLNYENTIKSIRILNHKKMGNIGIRRITISTVGIPDRIIQLAEEGLDVKLALSLHAPTNFKRDQLVPLNKKYSIEEILNAVKIYQRKTGNRVTIEYVLIRGINDEISDAKKLAEILRNMKVFVNLIPVNPTVEGLRRPSRERLLTFKRILLENGIEAEIRREKGTDIEAACGQLRLKRIKSRS”, the “soluble on expression in E. coli” value was “soluble”. With “MGSSHHHHHHSSGRENLYFQGHMLLHIPAIFTAEEVSRIRAALEQAEWADGKATAGYQSAKAKHNLQLPQDHPLAREIGEAMLQRLWNHPLFMSAALPLKVFPPLFNCYTGGGSFDFHIDNAVRDVHGGRERVRTDLSSTLFFSDPEDYDGGELVIQDTYGLQQVKLPAGDLVLYPGTSLHKVNPVTRGARYASFFWTQSLVREDSQRTLLFEMDQSIQRLTRDVPDHPSLIRLTGTYHNLLRRWSEL” the “soluble on expression in E. coli” value was “soluble”. With “MGSSHHHHHHSSGRENLYFQGHMVIIDNKHYLFIQKLGEGGFSYVDLVEGLHDGHFYALKRILCHEQQDREEAQREADMHRLFNHPNILRLVAYCLRERGAKHEAWLLLPFFKRGTLWNEIERLKDKGNFLTEDQILWLLLGICRGLEAIHAKGYAHRDLKPTNILLGDEGQPVLMDLGSMNQACIHVEGSRQALTLQDWAAQRCTISYRAPELFSVQSHCVIDERTDVWSLGCVLYAMMFGEGPYDMVFQKGDSVALAVQNQLSIPQSPRHSSALWQLLNSMMTVDPHQRPHIPLLLSQLEALQPPAPGQHTTQIL” the “soluble on expression in E. coli” value was “soluble”. With “MGSSHHHHHHSSGRENLYFQGVLGAGCIGGSIALKLKEKHHVTAFDRDEETMKALEENGIETVSKESDLYDTDLLVLALPMSVEERFLKETDFSGKILDVASVKTPFMEIARERGLNFTGGHPMAGNERKGKSGWDREMFDGKIFFLCSLDGKEDGMIENIVKDLGARPLWIDYRIHDEIVAAVSHVQYLISLSARYVGKPFEEYAGPGYLSNTRLSKQNMEMALDMIRYNKENILKYLENARNFLNVLYHLTEKEDFENLKKVIREVI” the “soluble on expression in E. coli” value was “soluble”. For “MGSSPAPFADIGKKAKDLLNKDYIFDHKFTLTMLSATGTEFVATGLKKDDFFFGDISTLYKGQNTIVDLKIDSHSSVSTKVTLKNLLPSAKAVISFKIPDHKSGKLDVQYVHPHATLNSSIGLNPTPLLDLSATIGSQNVCLGGEVSFDTASSSLTKYNAGIGFNNQGVSAALILEDKGESLRATYVHTVNPTTSFGAELIRRFSNYNNSFTVGSSHSVDQFTVVKTRFSNSGKAGMVVQREWRPKSHITFSAEYDSKAVTSSPKLGLALALKP”, the “soluble on expression in E. coli” value was “soluble”. In the case of “MGTALAAPPLGGCAEGFEVHGGDEEGLPLPTQIDLYLVGLAPLPHHGSRQPVEPPVGHAPVWEGGVYDYSHLIAHPVLPKVGAEPGYAALLPHRLPQQPPSPVPIASRCLDQPTLPPVFCSAQLNLALAGCGWSFMLHPHHVELYTHSLPAEDLSEAWPGSPAITADQLLDVETPFRLQYALHQRRPLQGAAV”, the “soluble on expression in E. coli” value is reported as “soluble”. In the case of “MGTGGITSNAHVVSPTWHHKHVPPMDDDSVLQRDIGELLSRWGGLQMAVKNQWGGHDSLKKSQELAHNLFHLISQSNGSIFFLLL”, the “soluble on expression in E. coli” value is reported as “not soluble”. In the case of “MGTLIMENETNLSEVELRKNLIANINDCKTLLQLGEIYYSSGRYYLAANYLSYVMKMTNDAALYEKSNQLLFLAERAIQINNNDKMFSNFEFLDTLIMELLNCLKNHYYYNIDIELFELMHVRPSVDSIVVNTQNEKEEIVKHLQGLEELYFNLNDSFSKELLIKLLTFRLLGNHKVKMPLNTIDYWKQRKSIPNLIHSSETLQTNYHNWTLQLFDLTPLKYNLRLFYVPMGISATFLDKQYEYNKISPVIKVKEGDVVIDAGGCFGDTALYFAHEVGETGHVYTIEFIPSNLEIMSKNINLNEKLQNNITIVKHPLWNVSNTSLYYKDQGAASFVTFSEESGVTDKVSTITIDNLVVEHKLHKLDFIKMDVEGAEMNALKGAIHSITTFRPTLAIAIYHQISDFVNVMRFINDLNLGYQFYLGHYTVNAQETILFAVAREKMEVSDENEE”, the “soluble on expression in E. coli” value is reported as “soluble”. For “MGVDKKQKQRKTNPFELKFNKSKHDILGRKKGAQVGAPTASRKRAHEQREQTLGVEYDRKNKISKIVDKRLGEKDGKSEEEKGAMRFTEERVKNYKRASKFNLTDDGDEEEEVLTHKGKALSDIEKYDKSMISDSDDDEEPGNLGSNMVKVAHFGGGEKTAEEHVREKISREDMISNLIAKTKLARHEKQQQKDELELMTESLDSKYQALMGKMKASFRPTGRQPLEKDDYDKLTITLKTEADARATPADRKLSEEEEALKEKERLETLEAAPDADVDIDAGSKADARKVQAKNSRFEVKFDDEGGLIDEDTVEKSRILKKNLDGSDESDDDEDLEDEEEDLDDLLEDEDELEEDSDDEEAQEAQKVVKKAKKSAPEPAETLPFVFEMPKNYKKFCALLEKHSESMDLVLERLVKCHHPSLKEGNKKRLNKLFLLCLRWFDDMSKEELTAESVKEMNLAQETMHALMKFDIQYGVRCVRALIRQHWKGRQDKQKSSPVSFGLISAIRLVSGLFPVADSWHPVVVPALFLATEALCSAKCANLNALAKQIQLANAIVEYVSESKRYVPELVAFARSALLLAVTEKSEKFATNGFPISKPHTEMLCFEEKYTGPALQPISLTTIFNNSPSDPSLKLHVLRALLSLIQHLRVIYSNQNETYSIVFKPFLRILESIQAKNLPAEVQEELETLCASMKAEIGAKCRLVHLSLVKTEKSMLKMLEPRFEWDFDPERPHHGPKDEKKKLTKNLRNERRGAIKELRKDTAFLARKQLSSVKTKDRARIAATKRVMGGLMQQQGEWNKEKRTADVEKKKDKK”, the “soluble on expression in E. coli” value was “soluble”. In the case of “MGVELSLDPPVCPIQANGGVSTHKIINHCDKMLAYKIKSSNNSNYSVNTIFGLIQIGYTADLIITRKPGKPQADKLVIQFAAVEQTCRDGCICQGCICQWTANWRVLWRDDHQAVSC”, the “soluble on expression in E. coli” value is reported as “not soluble”. With “MGVLLREALRSMCVNNQWSYAVFWKIGCQNSSLLIWEECYNETESSSNPRRLCGLGVDTQGNEKVQLLTNRMMLNNRIILVGEGLVGRAAFTGHHQWILANSFNRDVHPPEVINEMLLQFSAGIQTVAVFPVVPHGVVQLGSSLPIMENLGFVNDVKGLILQLGCVPGALLSENYRTYEPAADFIGVPVSRIIPSQGHKILQSSAFVAETSKQHFNSTGSSDHQMVEESPCNLVDEHEGGWQSTTGFLTAGEVAVPSNPDAWLNQNFSCMSNVDAAEQQQIPCEDISSKRSLGSDDLFDMLGLDDKNKGCDNSWGVSQMRTEVLTRELSDFRIIQEMDPEFGSSGYELSGTDHLLDAVVSGACSSTKQISDETSESCKTTLTKVSNSSVTTPSHSSPQGSQLFEKKHGQPLGPSSVYGSQISSWVEQAHSLKREGSPRMVNKNETAKPANNRKRLKPGENPRPRPKDRQMIQDRVKELREIIPNGAKCSIDALLERTIKHMLFLQNVSKHSDKLKQTGESKIMKEDGGGATWAFEVGSKSMVCPIVVEDINPPRIFQVEMLCEQRGFFLEIADWIRSLGLTILKGVIETRVDKIWARFTVEASRDVTRMEIFMQLVNILEQTMKCGGNSKTILDGIKATMPLPVTGGCSM” the “soluble on expression in E. coli” value was “not soluble”. In the case of “MGVNGAAGRSPGPKAVKPASVAIAVDYAMLTHEQAAVCAMRHERIDINPEVMGGKPVVRGTRIPVEMILRKLGAGLSTAEIIADHPRLTADDILAVQTFAADYLADQDVIFG”, the “soluble on expression in E. coli” value is reported as “not soluble”.
